# Laboratory results taken from patent publication US20080058636A1, “METHODS OF MYOCARDIAL IMAGING” (Epix Pharmaceuticals, Inc., priority 2005, published 2008).
# Bridge positions count the residues as written; N and C are the ends. Square brackets hold non-standard residues; d marks the D form. Ends that are not written are not given here. Cha = N[C@@H](CC1CCCCC1)C(=O)O
# Molecular target: rat collagen (acid soluble, type I, rat tail, Upstate 08-115) (rat) (UniProt P02454)
# Assay: dried collagen assay, 5 uM each
# Sequence of rat collagen (acid soluble, type I, rat tail, Upstate 08-115) (rat) (P02454 152-1207, chain 1 of 2): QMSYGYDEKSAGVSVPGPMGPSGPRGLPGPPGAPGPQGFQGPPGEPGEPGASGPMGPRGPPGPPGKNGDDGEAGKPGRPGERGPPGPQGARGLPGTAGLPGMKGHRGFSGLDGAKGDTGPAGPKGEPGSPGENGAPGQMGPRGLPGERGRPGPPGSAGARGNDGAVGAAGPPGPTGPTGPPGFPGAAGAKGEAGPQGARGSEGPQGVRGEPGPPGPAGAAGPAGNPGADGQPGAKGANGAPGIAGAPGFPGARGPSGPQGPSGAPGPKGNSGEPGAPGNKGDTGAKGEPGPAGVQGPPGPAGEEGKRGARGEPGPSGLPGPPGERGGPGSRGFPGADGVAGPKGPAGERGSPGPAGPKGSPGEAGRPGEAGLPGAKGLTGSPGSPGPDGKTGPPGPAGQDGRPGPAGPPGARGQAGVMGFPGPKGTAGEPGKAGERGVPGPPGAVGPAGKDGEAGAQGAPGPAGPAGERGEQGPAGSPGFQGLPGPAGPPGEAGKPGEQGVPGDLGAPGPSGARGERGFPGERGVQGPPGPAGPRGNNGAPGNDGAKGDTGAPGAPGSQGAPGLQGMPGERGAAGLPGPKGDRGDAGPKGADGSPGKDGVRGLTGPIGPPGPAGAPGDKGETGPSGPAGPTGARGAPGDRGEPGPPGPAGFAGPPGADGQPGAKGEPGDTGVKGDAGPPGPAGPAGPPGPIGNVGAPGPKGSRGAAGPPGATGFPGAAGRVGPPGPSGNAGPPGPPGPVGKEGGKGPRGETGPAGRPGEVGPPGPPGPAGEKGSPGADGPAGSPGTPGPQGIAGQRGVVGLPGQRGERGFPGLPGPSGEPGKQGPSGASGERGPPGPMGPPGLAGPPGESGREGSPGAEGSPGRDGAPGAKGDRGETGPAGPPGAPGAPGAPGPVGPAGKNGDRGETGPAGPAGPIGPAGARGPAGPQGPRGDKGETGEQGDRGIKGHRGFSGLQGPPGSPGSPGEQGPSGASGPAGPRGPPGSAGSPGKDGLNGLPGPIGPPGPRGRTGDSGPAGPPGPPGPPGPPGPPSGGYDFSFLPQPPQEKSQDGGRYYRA
# Sequence of rat collagen (acid soluble, type I, rat tail, Upstate 08-115) (rat) (P02466 86-1125, chain 2 of 2, further chain): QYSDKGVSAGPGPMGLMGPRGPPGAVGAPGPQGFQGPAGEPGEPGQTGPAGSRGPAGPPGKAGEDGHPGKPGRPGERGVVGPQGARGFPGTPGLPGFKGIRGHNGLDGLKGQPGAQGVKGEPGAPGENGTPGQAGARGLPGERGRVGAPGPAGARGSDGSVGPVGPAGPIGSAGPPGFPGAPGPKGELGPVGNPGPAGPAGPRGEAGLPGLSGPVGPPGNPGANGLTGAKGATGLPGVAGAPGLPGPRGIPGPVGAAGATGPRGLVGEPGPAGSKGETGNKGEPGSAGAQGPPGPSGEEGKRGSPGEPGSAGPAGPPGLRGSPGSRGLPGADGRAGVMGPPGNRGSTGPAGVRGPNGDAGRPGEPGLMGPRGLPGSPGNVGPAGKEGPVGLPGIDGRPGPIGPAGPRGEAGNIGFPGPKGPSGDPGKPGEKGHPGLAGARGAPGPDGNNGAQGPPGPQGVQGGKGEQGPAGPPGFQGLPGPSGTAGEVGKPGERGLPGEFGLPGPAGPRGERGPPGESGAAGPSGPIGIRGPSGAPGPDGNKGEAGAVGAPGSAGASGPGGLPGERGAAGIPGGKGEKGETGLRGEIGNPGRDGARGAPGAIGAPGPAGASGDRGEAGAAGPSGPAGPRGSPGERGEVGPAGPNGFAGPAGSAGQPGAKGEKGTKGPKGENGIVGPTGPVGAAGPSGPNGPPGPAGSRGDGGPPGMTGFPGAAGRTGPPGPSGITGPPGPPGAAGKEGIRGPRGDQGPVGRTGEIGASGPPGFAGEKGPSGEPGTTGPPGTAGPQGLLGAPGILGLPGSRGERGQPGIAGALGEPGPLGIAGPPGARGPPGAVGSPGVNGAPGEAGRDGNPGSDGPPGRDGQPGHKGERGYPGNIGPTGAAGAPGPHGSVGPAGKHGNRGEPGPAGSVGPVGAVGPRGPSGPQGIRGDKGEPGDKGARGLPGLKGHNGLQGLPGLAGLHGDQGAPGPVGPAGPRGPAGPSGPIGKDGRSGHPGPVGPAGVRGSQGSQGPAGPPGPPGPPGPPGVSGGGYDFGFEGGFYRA
row,Binder,Rat binding [%]
1,GQWHCTTFFPHHYCLYG [Compound ID 929],34
2,GAWHCTTLFPHHYCLYG [Compound ID 908],0
3,GQWHCTTRFPHHRCLYG [Compound ID 902],2
4,GQWHCTTIFPHHYCLYG [Compound ID 917],0
5,AWHCTTLFPHHYCLYG [Compound ID 909],0
6,PPWHCTTLFPHHYCLYG [Compound ID 912],0
7,GQWHCTTRYPHHYCLYG [Compound ID 859],38
8,AWHCTTRFPAHYCLYG [Compound ID 937],14
9,GQWHCTKRFPHHYCLYG [Compound ID 940],8
10,GQWHCTSRFPHHYCLYG [Compound ID 898],3
11,GQWHCTDRFPHHYCLYG [Compound ID 936],5
12,GKWHCTTLFPHHYCLYG [Compound ID 930],42
13,GAWHCTTRFPHHYCLYG [Compound ID 857],69
14,GQWHCTTRFPAHYCLYG [Compound ID 865],17
15,PPQWHCTTRFPHHYCLYG [Compound ID 854],56
16,GQWHCTYRFPHHYCLYG [Compound ID 899],14
17,GQWHCTYLFPHHYCLYG [Compound ID 921],35
18,GQWHCTTRFPSHYCLYG [Compound ID 880],0
19,GQWHCTT[Cha]FPHHYCLYG (disulfide 5-14 (inferred)) [Compound ID 918],0
20,GDWHCTTLFPHHYCLYG [Compound ID 910],0

row,Binder,Rat binding [%]
1,GQWHCTTAFPHHYCLYG [Compound ID 853],57
2,GQWHCTTDFPHHYCLFG [Compound ID 890],15
3,GQWSCTTRFPHHYCLYG [Compound ID 870],28
4,GQWHCTTLFPHHYCVYG [Compound ID 928],80
5,GQWHCTTRFPHAYCLYG [Compound ID 878],9
6,GQWHCTTRFPHHTCLYG [Compound ID 905],2
7,GQWHCTRRFPHHYCLYG [Compound ID 900],1
8,GQWHCTTLFPNHYCLYG [Compound ID 923],10
9,GQWHCTTDYPHHYCLYG [Compound ID 895],0
10,GAWHCTTYFPHHYCLYG [Compound ID 915],0
11,GQWHCTTLFPHNYCLYG [Compound ID 924],1
12,GQWHCTTRFPHHYCFYG [Compound ID 931],83
13,GQWHCTTRFAHHYCLYG [Compound ID 938],13
14,GQWHCTNRFPHHYCLYG [Compound ID 897],1
15,GQWHCTTLFPHHYCIYG [Compound ID 927],63
16,GQWNCTTLFPHHYCLYG [Compound ID 922],58
17,GQWACTTRFPHHYCLYG [Compound ID 876],26
18,GQWHCTTRFPHHYCAYG [Compound ID 855],15
19,GSWHCTTLFPHHYCLYG [Compound ID 911],0
20,GQWHCATRFPHHYCLYG [Compound ID 877],41

# Second part, the binder after the results:
row,Rat binding [%],Binder
1,57,GKWHCTTYFPHYYCLYG [Compound ID 947]
2,69,GKWHCYTYFPHHYCVYGK [Compound ID 974]
3,86,GKWHCYTYFPYHYCLYG [Compound ID 964]
4,82,GKWHCYTYFPHHYCVYY [Compound ID 945]
5,11,GKWHCTTYFPHHVCLYG [Compound ID 965]
6,39,GQWHCKTRFPHHYCLYG [Compound ID 957]
7,10,GKWHCTTYFPTHYCLYG [Compound ID 962]
8,0,GKWHCTTYFPHHFCLYG [Compound ID 972]
9,79,GKWHCTTYFPHHYCLYY [Compound ID 949]
10,34,KKGQWHCTTYFPHHYCLYG [Compound ID 960]
11,57,GKWHCTTYFPHHYCLYYK [Compound ID 976]
12,17,GKWHCTTYFPHWYCLYG [Compound ID 948]
13,91,GKWHCYTYFPYHYCVYG [Compound ID 963]
14,67,GKWHCTTYFPHHYCVYG [Compound ID 942]
15,15,GQWKCTTRFPHHYCLYG [Compound ID 956]
16,68,GKWHCTTYFPYHYCLYG [Compound ID 946]
17,64,GKWHCYTYFPHHYCVYYK [Compound ID 975]
18,8,GKWHCTTLFPHHVCLYG [Compound ID 966]
19,33,GQWHCTTRFPKHYCLYG [Compound ID 958]

# Molecular target: human collagen type I (acid soluble, extracted from placenta, Sigma C7774) (human) (UniProt P02452)
# Sequence (P02452 162-1218 limits assumed, chain 1 of 2): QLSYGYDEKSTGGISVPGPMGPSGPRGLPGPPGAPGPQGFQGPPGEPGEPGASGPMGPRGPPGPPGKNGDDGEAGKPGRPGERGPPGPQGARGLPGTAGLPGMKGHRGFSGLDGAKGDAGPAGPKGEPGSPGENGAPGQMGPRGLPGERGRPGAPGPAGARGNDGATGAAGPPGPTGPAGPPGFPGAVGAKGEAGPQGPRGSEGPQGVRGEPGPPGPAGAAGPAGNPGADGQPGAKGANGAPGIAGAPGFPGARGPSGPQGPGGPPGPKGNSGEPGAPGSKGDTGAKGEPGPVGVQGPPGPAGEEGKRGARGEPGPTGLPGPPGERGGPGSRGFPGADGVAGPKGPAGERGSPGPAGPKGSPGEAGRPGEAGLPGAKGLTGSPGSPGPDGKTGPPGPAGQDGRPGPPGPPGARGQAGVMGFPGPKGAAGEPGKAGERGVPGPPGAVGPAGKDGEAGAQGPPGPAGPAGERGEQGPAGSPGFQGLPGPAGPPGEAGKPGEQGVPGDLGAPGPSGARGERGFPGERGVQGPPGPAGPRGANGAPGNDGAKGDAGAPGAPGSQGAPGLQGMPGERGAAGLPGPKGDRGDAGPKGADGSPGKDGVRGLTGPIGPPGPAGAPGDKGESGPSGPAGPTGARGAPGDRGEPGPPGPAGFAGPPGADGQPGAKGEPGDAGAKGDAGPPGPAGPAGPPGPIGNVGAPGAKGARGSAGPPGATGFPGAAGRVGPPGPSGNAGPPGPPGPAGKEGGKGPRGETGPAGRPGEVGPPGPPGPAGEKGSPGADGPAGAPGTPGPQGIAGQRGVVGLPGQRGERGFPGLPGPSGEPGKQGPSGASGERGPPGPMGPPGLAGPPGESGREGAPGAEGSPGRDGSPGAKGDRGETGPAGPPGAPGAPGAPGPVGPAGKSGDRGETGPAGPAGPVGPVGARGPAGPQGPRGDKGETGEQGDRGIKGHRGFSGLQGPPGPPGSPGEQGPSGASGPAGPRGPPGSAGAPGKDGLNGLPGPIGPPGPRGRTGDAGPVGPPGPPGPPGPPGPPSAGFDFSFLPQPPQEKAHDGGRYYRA
# Sequence (P08123 80-1119 limits assumed, chain 2 of 2, further chain): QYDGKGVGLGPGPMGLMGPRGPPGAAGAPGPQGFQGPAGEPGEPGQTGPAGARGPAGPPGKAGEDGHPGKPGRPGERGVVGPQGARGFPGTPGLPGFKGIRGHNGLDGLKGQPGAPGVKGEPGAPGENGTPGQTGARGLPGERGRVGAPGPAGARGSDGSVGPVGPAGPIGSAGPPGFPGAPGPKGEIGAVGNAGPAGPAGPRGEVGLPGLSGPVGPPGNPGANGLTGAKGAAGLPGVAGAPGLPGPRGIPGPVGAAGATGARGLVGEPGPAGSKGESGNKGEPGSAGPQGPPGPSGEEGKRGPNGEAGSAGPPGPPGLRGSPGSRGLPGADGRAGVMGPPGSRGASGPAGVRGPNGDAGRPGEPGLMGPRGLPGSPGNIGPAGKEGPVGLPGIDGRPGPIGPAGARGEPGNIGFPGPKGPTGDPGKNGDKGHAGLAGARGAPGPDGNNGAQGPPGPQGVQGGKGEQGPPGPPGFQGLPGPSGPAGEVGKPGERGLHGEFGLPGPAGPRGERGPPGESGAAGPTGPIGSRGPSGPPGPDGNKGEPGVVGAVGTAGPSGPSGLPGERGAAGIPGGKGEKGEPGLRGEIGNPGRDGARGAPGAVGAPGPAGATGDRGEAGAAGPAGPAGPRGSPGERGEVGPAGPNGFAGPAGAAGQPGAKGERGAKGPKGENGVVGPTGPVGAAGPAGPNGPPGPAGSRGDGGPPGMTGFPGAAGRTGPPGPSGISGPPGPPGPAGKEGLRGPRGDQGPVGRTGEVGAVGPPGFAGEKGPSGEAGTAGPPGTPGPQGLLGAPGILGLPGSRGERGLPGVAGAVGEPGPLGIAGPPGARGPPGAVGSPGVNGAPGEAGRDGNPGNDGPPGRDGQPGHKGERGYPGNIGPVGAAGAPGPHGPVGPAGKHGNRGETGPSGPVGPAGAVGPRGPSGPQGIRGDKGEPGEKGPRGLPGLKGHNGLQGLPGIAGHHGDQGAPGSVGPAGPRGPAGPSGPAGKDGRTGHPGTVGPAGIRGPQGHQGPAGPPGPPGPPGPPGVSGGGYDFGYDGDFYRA
# Assay: dried collagen assay, 5 uM each
row,Binder,Human binding [%]
1,GQWHCTTFFPHHYCLYG [Compound ID 929],27
2,GAWHCTTLFPHHYCLYG [Compound ID 908],20
3,GQWHCTTRFPHHRCLYG [Compound ID 902],7
4,GQWHCTTIFPHHYCLYG [Compound ID 917],12
5,AWHCTTLFPHHYCLYG [Compound ID 909],14
6,PPWHCTTLFPHHYCLYG [Compound ID 912],20
7,GQWHCTTRYPHHYCLYG [Compound ID 859],47
8,AWHCTTRFPAHYCLYG [Compound ID 937],11
9,GQWHCTKRFPHHYCLYG [Compound ID 940],9
10,GQWHCTSRFPHHYCLYG [Compound ID 898],5
11,GQWHCTDRFPHHYCLYG [Compound ID 936],9
12,GKWHCTTLFPHHYCLYG [Compound ID 930],31
13,GAWHCTTRFPHHYCLYG [Compound ID 857],67
14,GQWHCTTRFPAHYCLYG [Compound ID 865],30
15,PPQWHCTTRFPHHYCLYG [Compound ID 854],64
16,GQWHCTYRFPHHYCLYG [Compound ID 899],20
17,GQWHCTYLFPHHYCLYG [Compound ID 921],68
18,GQWHCTTRFPSHYCLYG [Compound ID 880],30
19,GQWHCTT[Cha]FPHHYCLYG (disulfide 5-14 (inferred)) [Compound ID 918],19
20,GDWHCTTLFPHHYCLYG [Compound ID 910],13

row,Binder,Human binding [%]
1,GQWHCTTAFPHHYCLYG [Compound ID 853],66
2,GQWHCTTDFPHHYCLFG [Compound ID 890],38
3,GQWSCTTRFPHHYCLYG [Compound ID 870],30
4,GQWHCTTLFPHHYCVYG [Compound ID 928],73
5,GQWHCTTRFPHAYCLYG [Compound ID 878],8
6,GQWHCTTRFPHHTCLYG [Compound ID 905],6
7,GQWHCTRRFPHHYCLYG [Compound ID 900],4
8,GQWHCTTLFPNHYCLYG [Compound ID 923],28
9,GQWHCTTDYPHHYCLYG [Compound ID 895],7
10,GAWHCTTYFPHHYCLYG [Compound ID 915],15
11,GQWHCTTLFPHNYCLYG [Compound ID 924],24
12,GQWHCTTRFPHHYCFYG [Compound ID 931],70
13,GQWHCTTRFAHHYCLYG [Compound ID 938],16
14,GQWHCTNRFPHHYCLYG [Compound ID 897],4
15,GQWHCTTLFPHHYCIYG [Compound ID 927],64
16,GQWNCTTLFPHHYCLYG [Compound ID 922],68
17,GQWACTTRFPHHYCLYG [Compound ID 876],48
18,GQWHCTTRFPHHYCAYG [Compound ID 855],27
19,GSWHCTTLFPHHYCLYG [Compound ID 911],15
20,GQWHCATRFPHHYCLYG [Compound ID 877],58

# Further lines, results first:
row,Human binding [%],Binder
1,64,GKWHCTTYFPHYYCLYG [Compound ID 947]
2,71,GKWHCYTYFPHHYCVYGK [Compound ID 974]
3,88,GKWHCYTYFPYHYCLYG [Compound ID 964]
4,83,GKWHCYTYFPHHYCVYY [Compound ID 945]
5,26,GKWHCTTYFPHHVCLYG [Compound ID 965]
6,42,GQWHCKTRFPHHYCLYG [Compound ID 957]
7,20,GKWHCTTYFPTHYCLYG [Compound ID 962]
8,3,GKWHCTTYFPHHFCLYG [Compound ID 972]
9,72,GKWHCTTYFPHHYCLYY [Compound ID 949]
10,30,KKGQWHCTTYFPHHYCLYG [Compound ID 960]
11,62,GKWHCTTYFPHHYCLYYK [Compound ID 976]
12,25,GKWHCTTYFPHWYCLYG [Compound ID 948]
13,82,GKWHCYTYFPYHYCVYG [Compound ID 963]
14,78,GKWHCTTYFPHHYCVYG [Compound ID 942]
15,39,GQWKCTTRFPHHYCLYG [Compound ID 956]
16,71,GKWHCTTYFPYHYCLYG [Compound ID 946]
17,70,GKWHCYTYFPHHYCVYYK [Compound ID 975]
18,14,GKWHCTTLFPHHVCLYG [Compound ID 966]
19,45,GQWHCTTRFPKHYCLYG [Compound ID 958]
